Results from the supplement of paper PMC12764529.
± gives the half width of the 95% confidence interval.

Legend:
[1] = folding stability dG unfold from trypsin proteolysis; higher = more stable
How it was run: (§1)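 Mini-proteins designed to be under 80 residues and free of cysteine were carried in a PA-tagged cDNA display construct and digested with trypsin and with chymotrypsin. Each protease was applied at 11 threefold-diluted concentrations, alongside a no-protease condition, before sequencing. K50 came from Bayesian fitting of the sequencing counts, and unfolding free energy was obtained by comparing it with a sequence-predicted unfolded-state K50 and a shared folded-state K50, for each protease separately or for both together. Designs were retained only if their AlphaFold2 dimer inter-PAE exceeded 15.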

[2] = folding stability dG unfold from chymotrypsin proteolysis; higher = more stable
How it was run: as §1

[3] = folding stability dG unfold (combined trypsin and chymotrypsin); higher = more stable
How it was run: as §1

Sequence	folding stability dG unfold [1] [kcal/mol]	folding stability dG unfold [2] [kcal/mol]	folding stability dG unfold [3] [kcal/mol]
SAGGMKKEKVKITIVVPVEDAEKLREALEKLGFKVVEEKENEDGLLTLTVEVDGKKIEIKIVKKEELSAGGS [r16_170_TrROS_Hall]	1.13 ± 0.088	0.81 ± 0.095	1.05 ± 0.28
SAGGMKKGQKVTITIEKNEDGTLRITVKVDGKEFVFEFPKDMSLEELLKKAEEAAKKLNLPVEIEPVSAGGS [r16_446_TrROS_Hall]	1.29 ± 0.069	2.65 ± 0.15	2.3 ± 0.25
SAGGMKKYKIKVENLPPGARIITPDGREIKPGEEVEIELPEDVKEIYVILPDGKIVKVKVEEVEPEEESAGG [r13_441_TrROS_Hall]	4.12 ± 0.3	4.31 ± 0.15	3.71 ± 0.76
SAGGMKKYKVTVTIELTPPDGTTTTVTVTIDVDGDEKKALEEAEKVAEELKAAGYPVTIKEIKIYEESAGGS [r16_525_JUSTAS]	3.8 ± 0.37	4.51 ± 0.3	4.69 ± 0.78
SAGGMKLKPVKEGEEIEIELEIVDKETKKVYKVKAKITVVKDKETKEYYVKIEIENPETGEKYTFLLKSAGG [r13_262_TrROS_Hall]	2.17 ± 0.13	2.34 ± 0.12	2.21 ± 0.36
SAGGMKLTPEELKGKTIRIRIKVNGKEYEIEAKVVEVDGELYIEVKIINKETKEEKTITIPLDDVEIVSAGG [r13_289_TrROS_Hall]	2.67 ± 0.072	2.1 ± 0.064	2.39 ± 0.25
SAGGMKLTVEIEYDEETEEVTIRIRNEETGEEIEITLSKEEVEKLLEALEKNPEKSIEEALLEALKESAGGS [r8_484_TrROS_Hall]	2.58 ± 0.23	2.33 ± 0.11	2.43 ± 0.25
SAGGMKPGAPVEIEFPIPGIPPGRRFRIMIHYPNGKHVEAEYTDNTIKIEIPVPDGDNIHHIYIYFYSAGGS [r16_179_TrROS]	3.27 ± 0.084	4.33 ± 0.11	3.86 ± 0.12
SAGGMKPGEKTIRLLLKLPPGEELTPEQVEELAKRLAEELREKGYEVEVEVVERDGELYVLVEVRFPESAGG [r13_442_TrROS_Hall]	3.55 ± 0.1	4.275 ± 0.034	4.1 ± 0.044
SAGGMKPGETWRIRTPGKTITIEVKDGKITVTVEENGKKKTIVVEAETEEEALEALRSIPGLEIEKVSAGGS [r16_583_TrROS_Hall]	1.73 ± 0.05	1.32 ± 0.13	1.61 ± 0.16
SAGGMKSETIPLTTPEGVPFEVTITTENGKVTVTITPLDPSAPEEVVEAVRAAVEARAAAAGKTVTLVSAGG [r13_774_JUSTAS]	1.47 ± 0.046	1.37 ± 0.04	1.42 ± 0.07
SAGGMKTFTLENPPLAPPDRPLGGSTLKLPDGTVLVRINLPSGETILLPSYEELEKLKASGEPVSVTASSAG [r5_42_JUSTAS]	0.285 ± 0.055	0.254 ± 0.15	0.348 ± 0.12
SAGGMKTIEITIKTEDGYTIKIKITEKDGKLYIEIEIEDPNMSEEQREKIKKEIEELAKKLNIKVEIPSAGG [r13_774_TrROS_Hall]	3.48 ± 0.31	2.8 ± 0.27	3.14 ± 0.42
SAGGMKTLKIKIKVPEDEEKAEELAKKLEELFGLKVEVEKKDGELTITVEVSEEVRELLKELGVEIEPSAGG [r13_156_TrROS_Hall]	2.58 ± 0.16	4.15 ± 0.089	3.79 ± 0.16
SAGGMKTSAEELVERLKKELEAKGLKPKEVKKLPDGSLLVEFEEDVVVYIDAKTGTVTVLTPEEYEKLSAGG [r13_717_JUSTAS]	1.7 ± 0.12	2.68 ± 0.05	2.4 ± 0.14
SAGGMKTVNLTYTRYLPDKTLEEAKELAKKDLESRGLKILSLPVSREPGAGVVTVSATVEVAPPSLLSAGGS [r16_287_JUSTAS]	3.67 ± 0.12	3.99 ± 0.1	3.82 ± 0.27
SAGGMKTYEYELELEGGGRLRIKITEDPNNPVYTVTFYSPEGKKLKTITIPANSIEEALKEAIELLKSAGGS [r16_158_JUSTAS]	4.6 ± 0.29	4.79 ± 0.12	4.73 ± 0.18
